Assay [1] concerns the target human CD3 receptor on T cell surface (Jurkat cells, human CD4 T cells) (human) (UniProt P07766). Description: flow cytometry on Jurkat cells, one site saturation fit.
Assay [2] deals with Cynomolgus Monkey CD3epsilon protein (Cynomolgus monkey) (UniProt Q95LI5). Description: ELISA, protein coated on plate.
The target of assay [3] is Human CD3 epsilon (CD3epsilon) protein (His Tag) (human) (UniProt P07766). Description: ELISA, protein coated on plate.
The target of assay [4] is mouse CD3epsilon protein (mouse) (UniProt P22646). Description: ELISA, protein coated on plate.

Among the data in patent publication US20230203159A1 are Best fit- Bmax and ELISA A450 values, retold here.

Sequence of Cynomolgus Monkey CD3epsilon protein (Cynomolgus monkey) (Q95LI5 22-117 limits assumed): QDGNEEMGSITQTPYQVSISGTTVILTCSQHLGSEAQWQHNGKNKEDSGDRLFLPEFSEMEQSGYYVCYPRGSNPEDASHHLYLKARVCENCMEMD
Sequence of Human CD3 epsilon (CD3epsilon) protein (His Tag) (human) (P07766 23-126): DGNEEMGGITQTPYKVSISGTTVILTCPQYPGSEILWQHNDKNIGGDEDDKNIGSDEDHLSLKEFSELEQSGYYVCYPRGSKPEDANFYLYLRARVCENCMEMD
Sequence of human CD3 receptor on T cell surface (Jurkat cells, human CD4 T cells) (human) (P07766 23-207): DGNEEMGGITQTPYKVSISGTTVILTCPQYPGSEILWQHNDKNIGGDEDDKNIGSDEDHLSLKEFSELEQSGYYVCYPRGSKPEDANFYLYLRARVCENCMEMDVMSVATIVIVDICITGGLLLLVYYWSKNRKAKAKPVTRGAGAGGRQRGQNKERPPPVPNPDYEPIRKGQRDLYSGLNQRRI
Sequence of mouse CD3epsilon protein (mouse) (P22646 22-108 limits assumed): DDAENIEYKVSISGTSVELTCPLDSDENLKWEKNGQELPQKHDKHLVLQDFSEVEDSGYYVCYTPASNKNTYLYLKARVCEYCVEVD

Regarding Benchmark antibody OKT3, the Best fit- Bmax in assay [1] worked out at 9.41e-11.

For the substance Negative Control, the results for the ELISA A450 in assay [2], in assay [3] and in assay [4] were 0.046 A450, 0.046 A450 and 0.179 A450, respectively.
